The source of these data is the RNAGym collection of RNA variant scans (doi:10.7554/elife.80360).

The chains are these.
B1: HDV Ribozyme (parent)
chain: GGCCGGCAUGGUCCCAGCCUCCUCGCUGGCGCCGGCUGGGCAACAUUCCGAGGGGACCGUCCCCUCGGUAAUGGCGAAUGGGACCCA

In the series the parent is B1. Briefly: self-cleavage, relative activity (ratio to wild type); higher = more cleavage; co-transcriptional.
For the variant G40A U47A, the self-cleavage came out at 0.997.
G40A U47G: the self-cleavage was found to be 0.831.
The figure for G40A U47C is 1.03; for G40C C66U it is 0.249; for G39U G52U it is 0.66.
Take G39U G52A: the self-cleavage was 0.772.
Next, G40C A87U: 0.325.
The figure for G40C A87C is 0.245; for G40U C49G it is 0.888; for G40U G53U it is 0.75.
For G40A C57G, the self-cleavage stood at 1.02.
Next, G40A C57U: 1.13.
The figure for G40U C58G is 0.598.
Next, G40C A70U: 0.191; G40C A70G: 0.0941; G40C A70C: 0.208.
C41A C49A: the self-cleavage was found to be 0.519.
The figure for G40C U60C is 0.332.
Next, G40C U60G: 0.271; G39U C84U: 0.492; G40U G68A: 0.722.
The figure for G40U G68C is 0.443; for G40U G68U it is 0.858.
Regarding C41A A42G, the self-cleavage amounted to 0.269.
The figure for G39U A42G is 0.249.
Next, G40C C85A: 0.128; G40C C85U: 0.0804; G40A C86A: 1.2.
Next, C41A A45C: 0.504; C41A A45G: 0.942.
C41A A45U: the self-cleavage worked out at 0.872.
Next, G40U A78U: 0.191; G40U A78C: 0.132.
The figure for G40U A77G is 0.462; for G40U C62U it is 0.872; for G40U C62A it is 0.709.
Next, G40C A56U: 0.381; G39U A83U: 0.259.
G39U A83C: the self-cleavage worked out at 0.157.
Next, G39U: 0.727.
Next, G40U C41U: 0.937.
Next, G39U A71G: 0.383.
On to G39U A71C, for which the self-cleavage is 0.308.
Next, G40A G67C: 0.992.
The figure for G40A G67U is 0.919.
Next, G40A G67A: 1.12.
As for G40C G68A, the self-cleavage is 0.201.
In the case of G40C G68U, the self-cleavage was 0.245.
The figure for C41A A51C is 0.875; for C41A A51G it is 0.705.
As to G40C U65A, the self-cleavage came out at 0.326.
Turning to G40U G82A, the self-cleavage worked out at 0.256.
Take G40U G82C: the self-cleavage came to 0.157.
Next, G40U G82U: 0.171.
The figure for G40A C84G is 0.594; for G40A C84U it is 0.377; for G40A G53C it is 1.01.
The figure for G40A G53A is 0.882; for G40C G55A it is 0.121.
As for G40C G55C, the self-cleavage was determined as 0.347.
Next, G40C C64G: 0.242; G40C C64A: 0.138.
The figure for G39U C62U is 0.918.
The figure for G39U C44U is 0.211; for G39U U60G it is 0.502; for G40U U60A it is 0.795.
Regarding G40U U60C, the self-cleavage came out at 0.723.
Next, G40U U60G: 0.796; G39U U65G: 0.583; G40C A77U: 0.128.
Regarding G40A A78G, the self-cleavage stood at 0.795.
The figure for G40A A78U is 0.404; for G40C G52C it is 0.0573; for G40C G52U it is 0.246.
The figure for G40C G52A is 0.247.
Next, G39U G80A: 0.151; G39U G80U: 0.119.
For G40A A83U, the self-cleavage was determined as 0.251.
Next, G40A A83C: 0.272.
The figure for G40A A83G is 0.573; for G39C U72C it is 0.155.
Next, G39C U72G: 0.128.
For G40C G54U, the self-cleavage came to 0.205.
Next, G40C G54A: 0.398.
Next, G39U G82A: 0.27; G40C G76U: 0.346; G40A G81C: 0.29.
Regarding G40A G81U, the self-cleavage came out at 0.342.
Next, G40A A56G: 1.11.
Consider G40A A56C, for which the self-cleavage is 0.878.
Next, G40A G80U: 0.217.
With G40A G80C, the self-cleavage is 0.161.
Next, G40A G80A: 0.427.
Next, G40A G68C: 0.794; G39U A56C: 0.701.
Take G39U A56U: the self-cleavage turned out to be 0.819.
Next, G39U U72C: 0.0573; G39U U72A: 0.13.
Next, G39U G67U: 0.727; G40A U60A: 1.
Next, G40A U60C: 1.11.
Turning to G40C C75A, the self-cleavage is 0.0326.
The figure for G40C C75G is 0.166.
The figure for G40A C75U is 0.157; for C41A C57A it is 1.02.
The figure for G40C G73U is 0.233.
On to G40C A43C, for which the self-cleavage came to 0.123.
In the case of G40C C84G, the self-cleavage came to 0.128.
For the variant G40C C84U, the self-cleavage is 0.0852.
The figure for G39C U46G is 0.262; for G39C U46C it is 0.214.
For the variant G40U A51C, the self-cleavage is 0.627.
With G40U A51G, the self-cleavage was found to be 0.717.
Next, G39C U79C: 0.125.
Next, G39C U79G: 0.196.
The figure for G40U A70U is 0.69; for G40C A45C it is 0.0845.
On to G40C G81C, for which the self-cleavage came out at 0.115.
Consider G40C G81A, for which the self-cleavage worked out at 0.0755.
The figure for C41A C48U is 1.02; for C41A C48A it is 0.982.
Next, C41A C44A: 0.404; C41A C44U: 0.692; G40U U46A: 0.364.
The figure for G39U G54A is 0.59; for G39U G54U it is 0.722.
Regarding G40U G67U, the self-cleavage stood at 0.757.
With G40U G67C, the self-cleavage was 0.639.
G40A A51U: the self-cleavage was 0.844.
On to G40U G59A, for which the self-cleavage came to 0.812.
In the case of G40U G59C, the self-cleavage stood at 0.76.
The figure for G40C G80C is 0.0608; for G39U U47G it is 0.323.
The figure for G39U U47A is 0.554.
The figure for G40U C44U is 0.143.
G40U C44A: the self-cleavage is 0.107.
Next, G39U C66U: 0.724; G40A C63G: 0.46.
On to G40A C63U, for which the self-cleavage came out at 0.895.
The figure for G40A C63A is 0.856; for G40C C49U it is 0.125; for G40C C49A it is 0.381.
The figure for C41A A87U is 0.866.
The figure for C41A A87C is 1; for C41A A87G it is 0.883.
On to G40A G73A, for which the self-cleavage came out at 0.669.
The figure for G40A G73C is 0.544; for G40U A42C it is 0.671.
With G40U A56C, the self-cleavage stood at 0.639.
The figure for G40A U72C is 0.504.
Next, G40A C62U: 0.853.
As to G40A C62A, the self-cleavage amounted to 0.95.
Next, C41A A43C: 0.872; C41A A43U: 0.57; G40A C66G: 0.655.
Next, G40A C66U: 0.892; G39U G59U: 1.02; G39U G59C: 0.671.
Next, G40C A51U: 0.157; G39U C63U: 0.915.
As to G40C U47A, the self-cleavage is 0.0845.
Next, G40C U47G: 0.173.
The figure for G40U U79A is 0.262; for G40A G55U it is 1.17; for G40A G55A it is 0.882.
Next, G40C U72C: 0.174; G40C U72A: 0.124.
